Here are results for 57 variants from the RNAGym collection of RNA variant scans (doi:10.7554/elife.80360).

B1: Hammerhead Ribozyme (parent)
chain: ACCGGAUGUGCUUUCCGGUCUGAUGAGUCCGUGAGGACGAAACAG

Variants of B1 are the subject of this data set. Nature of the data set: self-cleavage, relative activity (ratio to wild type); higher = more cleavage; co-transcriptional.
Consider ACCGGAUGUGCUUUCCGGUCUGAUGAGUCCGUGAGCACAAAACAG [G36C G39A], for which the self-cleavage turned out to be 0.29.
Then ACCGGAUGUGCUUUCCGGUCUGAUGAGUCCGUGAGCACUAAACAG [G36C G39U], with 0.325.
In the case of ACCGGAUGUGCUUUCCGGUCUGAUGAGUCCGUGAGCACCAAACAG [G36C G39C], the self-cleavage was 0.335.
Turning to ACCGGAUGUGCUUUCCGGUCUGAUGAGUCCGUGAUUACGAAACAG [G35U G36U], the self-cleavage stood at 0.463.
ACCGGAUGUGCUUUCCGGUCUGAUGAGUCCGUGAUAACGAAACAG [G35U G36A]: the self-cleavage is 0.525.
For ACCGGAUGUGCUUUCCGGUCUGAUGAGUCCGUGAUCACGAAACAG [G35U G36C], the self-cleavage was 0.476.
With ACCGGAUGUGCUUUCCGGUCUGAUGAGUCCGUGAGUACGAGACAG [G36U A41G] the figure was 0.391; with ACCGGAUGUGCUUUCCGGUCUGAUGAGUCCGUGAGUACGAUACAG [G36U A41U], 0.372; with ACCGGAUGUGCUUUCCGGUCUGAUGAGUCCGUGAGUACGACACAG [G36U A41C], 0.309.
With ACCGGAUGUGCUUUCCGGUCUGAUGAGUCCGUGACGACAAAACAG [G35C G39A] the figure was 0.31.
Then ACCGGAUGUGCUUUCCGGUCUGAUGAGUCCGUGACGACUAAACAG [G35C G39U], with 0.307; and ACCGGAUGUGCUUUCCGGUCUGAUGAGUCCGUGACGACCAAACAG [G35C G39C], with 0.365.
Turning to ACCGGAUGUGCUUUCCGGUCUGAUGAGUCCGUGAGCACGAAACAC [G36C G45C], the self-cleavage came out at 0.393.
As for ACCGGAUGUGCUUUCCGGUCUGAUGAGUCCGUGAGCACGAAACAU [G36C G45U], the self-cleavage stood at 0.367.
With ACCGGAUGUGCUUUCCGGUCUGAUGAGUCCGUGAGCACGAAACAA [G36C G45A] the figure was 0.374; with ACCGGAUGUGCUUUCCGGUCUGAUGAGUCCGUGAGCACGAAACCG [G36C A44C], 0.383.
With ACCGGAUGUGCUUUCCGGUCUGAUGAGUCCGUGAGCACGAAACGG [G36C A44G] the figure was 0.588; with ACCGGAUGUGCUUUCCGGUCUGAUGAGUCCGUGAGCACGAAACUG [G36C A44U], 0.296.
With ACCGGAUGUGCUUUCCGGUCUGAUGAGUCCGUGAGCACGAUACAG [G36C A41U] the figure was 0.294.
For ACCGGAUGUGCUUUCCGGUCUGAUGAGUCCGUGAGCACGACACAG [G36C A41C], the self-cleavage is 0.364.
With ACCGGAUGUGCUUUCCGGUCUGAUGAGUCCGUGAGCACGAGACAG [G36C A41G] the figure was 0.449.
With ACCGGAUGUGCUUUCCGGUCUGAUGAGUCCGUGAGUACGAAGCAG [G36U A42G] the figure was 0.316.
With ACCGGAUGUGCUUUCCGGUCUGAUGAGUCCGUGAGUACGAAUCAG [G36U A42U] the figure was 0.329; with ACCGGAUGUGCUUUCCGGUCUGAUGAGUCCGUGAGUACGAACCAG [G36U A42C], 0.37.
Turning to ACCGGAUGUGCUUUCCGGUCUGAUGAGUCCGUGAGAACGAAAAAG [G36A C43A], the self-cleavage came to 0.383.
Then ACCGGAUGUGCUUUCCGGUCUGAUGAGUCCGUGAGAACGAAAGAG [G36A C43G], with 0.274.
Consider ACCGGAUGUGCUUUCCGGUCUGAUGAGUCCGUGAGAACGAAAUAG [G36A C43U], for which the self-cleavage stood at 0.378.
With ACCGGAUGUGCUUUCCGGUCUGAUGAGUCCGUGACGACGAAAUAG [G35C C43U], the self-cleavage stood at 0.387.
Then ACCGGAUGUGCUUUCCGGUCUGAUGAGUCCGUGAGCACGAAGCAG [G36C A42G], with 0.272; and ACCGGAUGUGCUUUCCGGUCUGAUGAGUCCGUGAGCACGAACCAG [G36C A42C], with 0.321.
Take ACCGGAUGUGCUUUCCGGUCUGAUGAGUCCGUGAGCACGAAUCAG [G36C A42U]: the self-cleavage was 0.286.
For the variant ACCGGAUGUGCUUUCCGGUCUGAUGAGUCCGUGAGAAAGAAACAG [G36A C38A], the self-cleavage was 0.345.
With ACCGGAUGUGCUUUCCGGUCUGAUGAGUCCGUGAGAAGGAAACAG [G36A C38G] the figure was 0.342.
With ACCGGAUGUGCUUUCCGGUCUGAUGAGUCCGUGAGAAUGAAACAG [G36A C38U] the figure was 0.531; with ACCGGAUGUGCUUUCCGGUCUGAUGAGUCCGUGAGAACGAAACCG [G36A A44C], 0.31; with ACCGGAUGUGCUUUCCGGUCUGAUGAGUCCGUGAGAACGAAACGG [G36A A44G], 0.75.
With ACCGGAUGUGCUUUCCGGUCUGAUGAGUCCGUGAGAACGAAACUG [G36A A44U] the figure was 0.332; with ACCGGAUGUGCUUUCCGGUCUGAUGAGUCCGUGAGAACGAGACAG [G36A A41G], 0.344.
ACCGGAUGUGCUUUCCGGUCUGAUGAGUCCGUGAGAACGACACAG [G36A A41C]: the self-cleavage stood at 0.382.
With ACCGGAUGUGCUUUCCGGUCUGAUGAGUCCGUGAGAACGAUACAG [G36A A41U] the figure was 0.279; with ACCGGAUGUGCUUUCCGGUCUGAUGAGUCCGUGAUGCCGAAACAG [G35U A37C], 0.548; with ACCGGAUGUGCUUUCCGGUCUGAUGAGUCCGUGAUGGCGAAACAG [G35U A37G], 0.679.
With ACCGGAUGUGCUUUCCGGUCUGAUGAGUCCGUGAUGUCGAAACAG [G35U A37U] the figure was 0.52.
With ACCGGAUGUGCUUUCCGGUCUGAUGAGUCCGUGACUACGAAACAG [G35C G36U] the figure was 0.401.
As to ACCGGAUGUGCUUUCCGGUCUGAUGAGUCCGUGACCACGAAACAG [G35C G36C], the self-cleavage came to 0.425.
With ACCGGAUGUGCUUUCCGGUCUGAUGAGUCCGUGACAACGAAACAG [G35C G36A] the figure was 0.504.
With ACCGGAUGUGCUUUCCGGUCUGAUGAGUCCGUGAUGACGAUACAG [G35U A41U] the figure was 0.311; with ACCGGAUGUGCUUUCCGGUCUGAUGAGUCCGUGAUGACGACACAG [G35U A41C], 0.305; with ACCGGAUGUGCUUUCCGGUCUGAUGAGUCCGUGAUGACGAGACAG [G35U A41G], 0.33.
Then ACCGGAUGUGCUUUCCGGUCUGAUGAGUCCGUGAGUAAGAAACAG [G36U C38A], with 0.326.
For the variant ACCGGAUGUGCUUUCCGGUCUGAUGAGUCCGUGAGAACGUAACAG [G36A A40U], the self-cleavage came out at 0.384.
Then ACCGGAUGUGCUUUCCGGUCUGAUGAGUCCGUGAGAACGGAACAG [G36A A40G], with 0.289; and ACCGGAUGUGCUUUCCGGUCUGAUGAGUCCGUGAGAACGCAACAG [G36A A40C], with 0.319.
Then ACCGGAUGUGCUUUCCGGUCUGAUGAGUCCGUGAUGACGAAACAA [G35U G45A], with 0.473; and ACCGGAUGUGCUUUCCGGUCUGAUGAGUCCGUGAUGACGAAACAU [G35U G45U], with 0.421.
Then ACCGGAUGUGCUUUCCGGUCUGAUGAGUCCGUGAUGACGAAACAC [G35U G45C], with 0.466; and ACCGGAUGUGCUUUCCGGUCUGAUGAGUCCGUGAUGACGAAACAG [G35U], with 0.817.
